Data on one sequence can be found in the Immune Epitope Database (IEDB).

Some targets named below: HLA-A*02:01; HLA-A*02:03; HLA-A*02:11; HLA-A*02:12; HLA-A*02:16; HLA-A*02:19; HLA-A*23:01; HLA-A*24:03; HLA-A*26:01; HLA-A*29:02; HLA-A*68:02; HLA-A*69:01; HLA-A*80:01; HLA-B*39:01; HLA-B*46:01; HLA-B*51:01; HLA-B*57:01.
What all share (assay): IEDB peptide-MHC binding, purified MHC/competitive/fluorescence; filed as Kd, often an IC50 or EC50 that approximates it; ≥ and ≤ were set here for values at or beyond the usual limits of such assays
Common to all, as to conditions: source organism: Escherichia coli O157:H7 str. Sakai

With HQIWLALRY, the Kd with HLA-A*02:01, with HLA-A*02:03, with HLA-A*02:11, with HLA-A*02:12, in the experiment with HLA-A*02:16 and with HLA-A*02:19 was at least 20 µM throughout. Further, the Kd is at least 20 µM with HLA-A*23:01; at least 20 µM in the experiment with HLA-A*24:03; at least 20 µM with HLA-A*26:01; 0.0016 µM with HLA-A*29:02; at least 20 µM in the experiment with HLA-A*68:02; at least 20 µM with HLA-A*69:01. Moreover, the Kd in the experiment with HLA-A*80:01 is 0.0072 µM; with HLA-B*39:01, at least 20 µM; with HLA-B*46:01, at least 20 µM; in the experiment with HLA-B*51:01, at least 20 µM; with HLA-B*57:01 it was at least 20 µM.

A word on the Kd: it is the concentration at which binding is half-saturated. High values mean a looser complex, low ones a tighter complex.
